Consider two molecules from patent publication US20220380441A1 (VIR BIOTECHNOLOGY, published 2022).

Numbering of substitutions follows the chain as printed.

For assay [1], the target named is T1, Human complement component C1q (human, UniProt P02745 23-245; P02746 28-253; P02747 29-245).
T1 construct: also called human C1q; human complement protein C1q
Put plainly: BLI (Octet RED96), IgG captured on anti-human Fab (CH1) sensors, C1q at 3 µg/ml.
Method: (§1) IgG-loaded sensors were then exposed for 4 minutes to a solution of kinetics buffer (pH 7.1) containing 3 μg/ml of purified human C1q (left part of the plot), followed by a dissociation step in the same buffer for additional 4 minutes (right part of the plot). Association and dissociation profiles were measured in real time as change in the interference pattern using an Octet RED96 (FortéBio).
(§2) IgG-loaded sensors were then exposed for 4 minutes to a solution of kinetics buffer (pH 7.1) containing 3 μg/ml of purified human C1q (left part of the plot), followed by a dissociation step in the same buffer for 4 additional minutes (right part of the plot). Association and dissociation profiles were measured in real time as change in the interference pattern using an Octet RED96 (FortéBio).

For assay [2], the target named is T2, Recombinant human FcγRIIIa (V158), His-tagged (human, UniProt P08637 17-208).
T2 construct: also called FcγRIIIa allele V158; not shown: C-terminal 6-His tag
Put plainly: BLI (Octet RED96), His-tagged FcγR on anti-penta-His sensors, mAb at 2 µg/ml cross-linked with anti-human F(ab')2.

Assay [3] has as its target T3, Recombinant human FcγRIIa (R131), His-tagged (human, UniProt P12318 34-218).
T3 construct: also called FcγRIIa allele R131
T3 sequence (looked up): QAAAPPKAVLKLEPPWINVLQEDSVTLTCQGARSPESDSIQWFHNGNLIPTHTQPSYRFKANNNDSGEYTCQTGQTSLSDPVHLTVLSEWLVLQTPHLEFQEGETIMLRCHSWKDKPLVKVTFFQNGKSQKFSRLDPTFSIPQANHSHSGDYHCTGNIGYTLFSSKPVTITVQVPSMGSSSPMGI
The assay is described as above.
Method: His-tagged human FcγRs ((A) FcγRIIa allele H131; (B) FcγRIIa allele R131; (C) FcγRIIIa allele F158; (D) FcγRIIIa allele V158; (E) FcγRIIb) at 2 μg/ml were captured onto anti-penta-His sensors for 6 minutes. FcγRs-loaded sensors were then exposed for 5 minutes to a solution of kinetics buffer (pH 7.1) containing 2 μg/ml of each mAb (left part of the plot) in the presence 1 μg/ml of affiniPure F(ab′)₂ Fragment Goat Anti-Human IgG, F(ab′)₂ fragment specific (to cross-link human mAbs through the Fab fragment), followed by a dissociation step in the same buffer for additional 4 minutes (right part of the plot). Association and dissociation profiles were measured in real time as change in the interference pattern using an Octet RED96 (FortéBio).
Briefly, His-tagged human FcγRs (FcγRIIa allele H131, FcγRIIa allele R131, FcγRIIAa allele F158, FcγRIIIa allele V158 and FcγRIIb) at 2 μg/ml were captured onto anti-penta-His sensors for 6 minutes. FcγR-loaded sensors were then exposed for 4 minutes to a solution of kinetics buffer (pH 7.1) containing 2 μg/ml of each mAb in the presence 1 μg/ml of affiniPure F(ab′)2 Fragment Goat Anti-Human IgG, F(ab′)2 fragment-specific (to cross-link human mAbs through the Fab fragment), followed by a dissociation step in the same buffer for 4 additional minutes (right part of the plot). Association and dissociation profiles were measured in real time as change in the interference pattern using an Octet RED96 (FortéBio).

For assay [4], the target named is T4, Recombinant human FcγRIIa (H131), His-tagged (human, UniProt P12318 34-218).
T4 construct: also called FcγRIIa allele H131; not shown: C-terminal 6-His tag
T4 sequence (looked up): T3 sequence (looked up) with R134H
Described as above.

Assay [5] concerns the target T5, Recombinant human FcγRIIIa (F158), His-tagged (human, UniProt P08637 17-208).
T5 construct: also called FcγRIIIa allele F158; not shown: C-terminal 6-His tag
The description is as above.

The target of assay [6] is T6, Recombinant human FcγRIIb, His-tagged (human, UniProt P31994 43-217).
T6 construct: not shown: C-terminal 6-His tag
T6 sequence (looked up): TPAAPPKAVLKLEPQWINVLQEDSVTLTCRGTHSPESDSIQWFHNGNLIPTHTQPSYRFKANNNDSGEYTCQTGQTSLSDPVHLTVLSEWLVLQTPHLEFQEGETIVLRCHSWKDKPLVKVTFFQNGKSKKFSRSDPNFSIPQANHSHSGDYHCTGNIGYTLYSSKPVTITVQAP
The description is as above.

The target of assay [7] is T1, Human complement component C1q. In words: BLI (Octet RED96), IgG captured on anti-human Fab (CH1) sensors.
Method: as §1, §2

T5 sequence (P08637 17-208 limits assumed): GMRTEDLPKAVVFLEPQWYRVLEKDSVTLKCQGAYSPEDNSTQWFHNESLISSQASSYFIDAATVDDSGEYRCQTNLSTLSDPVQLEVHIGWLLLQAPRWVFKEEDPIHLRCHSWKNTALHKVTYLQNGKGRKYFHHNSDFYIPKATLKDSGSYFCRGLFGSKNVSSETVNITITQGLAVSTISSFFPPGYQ
T2 sequence (P08637 17-208 F176V limits assumed): as the sequence (P08637 17-208 limits assumed) above, with F160V counted along it
T1 sequence (P02745 23-245 limits assumed, chain 1 of 3): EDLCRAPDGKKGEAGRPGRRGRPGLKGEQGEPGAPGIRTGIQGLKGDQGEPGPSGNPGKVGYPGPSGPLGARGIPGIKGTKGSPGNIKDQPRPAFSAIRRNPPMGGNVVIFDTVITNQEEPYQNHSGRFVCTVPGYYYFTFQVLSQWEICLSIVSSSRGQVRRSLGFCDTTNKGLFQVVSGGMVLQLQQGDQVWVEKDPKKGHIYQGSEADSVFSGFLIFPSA
T1 sequence (P02746 28-253 limits assumed, chain 2 of 3): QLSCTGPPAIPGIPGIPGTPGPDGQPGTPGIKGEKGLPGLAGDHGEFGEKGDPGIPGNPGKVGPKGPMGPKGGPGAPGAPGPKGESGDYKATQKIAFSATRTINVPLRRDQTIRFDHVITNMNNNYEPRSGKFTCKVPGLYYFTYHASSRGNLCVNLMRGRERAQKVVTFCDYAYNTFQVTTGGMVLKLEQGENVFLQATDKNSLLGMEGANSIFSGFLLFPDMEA
T1 sequence (P02747 29-245 limits assumed, chain 3 of 3): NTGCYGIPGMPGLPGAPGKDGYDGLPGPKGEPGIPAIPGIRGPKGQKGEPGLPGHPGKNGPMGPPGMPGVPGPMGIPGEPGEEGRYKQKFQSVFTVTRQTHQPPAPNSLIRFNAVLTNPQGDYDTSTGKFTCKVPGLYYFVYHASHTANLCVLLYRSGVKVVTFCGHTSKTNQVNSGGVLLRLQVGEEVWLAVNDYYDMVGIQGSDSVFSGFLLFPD

B1: HBC34-V35-MLNS (antibody, human IgG1, lambda)
heavy: not shown
light: SYELTQPPSVSVSPGQTVSIPCSGDKLGNKNVAWFQHKPGQSPVLVIYEVKYRPSGIPERFSGSNSGNTATLTISGTQAMDEAAYFCQTFDSTTVVFGGGTRLTVLGQPKAAPSVTLFPPSSEELQANKATLVCLISDFYPGAVTVAWKADSSPVKAGVETTTPSKQSNNKYAASSYLSLTPEQWKSHRSYSCQVTHEGSTVEKTVAPTECS
As to B1, the binding result in assay [1], in assay [2], in assay [3], in assay [4], in assay [5] and in assay [6] was “binds” in each case.

B2: HBC34-V35-MLNS-GAALIE (antibody, human IgG1, lambda)
heavy: ELQLVESGGGWVQPGGSQRLSCAASGRIFRSFYMSWVRQAPGKGLEWVATINQDGSEKLYVDSVKGRFTISRDNAKNSLFLQMNNLRVEDTAVYYCAAWSGNSGGMDVWGQGTTVSVSSASTKGPSVFPLAPSSKSTSGGTAALGCLVKDYFPEPVTVSWNSGALTSGVHTFPAVLQSSGLYSLSSVVTVPSSSLGTQTYICNVNHKPSNTKVDKKVEPKSCDKTHTCPPCPAPELLAGPSVFLFPPKPKDTLMISRTPEVTCVVVDVSHEDPEVKFNWYVDGVEVHNAKTKPREEQYNSTYRVVSVLTVLHQDWLNGKEYKCKVSNKALPLPEEKTISKAKGQPREPQVYTLPPSRDELTKNQVSLTCLVKGFYPSDIAVEWESNGQPENNYKTTPPVLDSDGSFFLYSKLTVDKSRWQQGNVFSCSVLHEALHSHYTQKSLSLSPGK
light: B1 light
As for B2, the binding result in assay [7] is “no binding (tested: 3 µg/ml of purified human C1q)”; in assay [2], “binds”; in assay [3], “binds”; in assay [4], “binds”; in assay [5], “binds”.
